Assay results: patent US5753621A, “Pulmonary surfactant protein fragments” (Abbott Laboratories, priority 1995, dated 1998)
No end group written: not given here. *: point of attachment. Acm = CC(=O)NC*

Assays:
Assay type in all cases: physicochemical
[1] = Adsorption capacity, modified Wilhelmy surface balance; details: measured after three (3) minutes spreading time; peptide 0.5 mg/ml (~2% of solids)
Procedure: (§1) Prior to testing for surface activity, the synthetic fragments were admixed with lipids. A lipid mixture consisting of 68% 1,2-dipalmitoyl-sn-phosphatidylcholine (DPPC), 22% egg phosphatidylglycerol (PG) and 9% palmitic acid on a weight basis was prepared by dissolving the lipids in chloroform:methanol (2:1). The required amount of peptide fragment was dissolved in methanol and heated to 60° C. for 10 minutes. The peptide solution was then added to the lipid mixture prewarmed to 45° C. for ten minutes. The samples were mixed at 45° C. by gentle swirling at 100 revolutions per minute on a Buchi rotary evaporator. The organic solvents were then evaporated at 45° C. by increasing the vacuum in 100 torr increments every five minutes until most of the solvent was removed. Final vacuum was between 150-200 torr. Following evaporation, the solids were then suspended in 10% ethanol prewarmed to 45° C. and which was prepared using deionized distilled water. The suspension was gently mixed with vortexing and placed back under vacuum at 600 torr with a repeat of the vacuum ramping process. Final vacuum for the ethanol removal was 50 torr. Following complete removal of ethanol the suspension was diluted with aqueous 0.15M NaCl at 45° C. to yield an admixture with a phospholipid concentration of 25 mg/ml. The peptide/lipid admixtures were formed at final peptide concentrations of 0.5 mg/ml (equivalent to 2% of solids concentration).
A procedure similar to that described by Notter, et al., Pediatric Res. 16, 515-519 (1982) was employed to determine the absorption rate in the absence of diffusion resistance. The modified Wilhelmy surface balance as described above was used. However, instead of using a Langmuir trough, a round Teflon dish (5.1 cm diameter) was employed. The subphase, 70 ml of 0.15M NaCl, was allowed to equilibrate to 37° C. in the incubator and was continuously stirred with a Teflon coated magnetic stirrer. An aliquot of the peptide/lipid fragment admixture containing 5 mg of total phospholipid was dispersed in 10 ml of 0.15M NaCl by vortexing for 10 seconds. This dispersion was then added to the saline subphase. Surface tension lowering was monitored using a strip chart recorder connected to the electro-balance output.

[2] = Relative surface activity by dilution studies on the modified Wilhelmy Balance-Langmuir Trough; details: for Mean Minimum Surface Tension, relative peptide concentration 1/2: 1/2 dilution of equimolar stock with lipid mixture; for Mean Minimum Surface Tension, relative peptide concentration 1/2 / Mean Minimum Surface Tension, relative peptide concentration 1/4 / Mean Minimum Surface Tension, relative peptide concentration 1/8 / Mean Minimum Surface Tension, relative peptide concentration 1/16 / Mean Minimum Surface Tension, relative peptide concentration Equimolar / Mean Minimum Surface Tension, relative peptide concentration 2%: 675 ug phospholipid; for Mean Minimum Surface Tension, relative peptide concentration 1/4: 1/4 dilution of equimolar stock with lipid mixture; for Mean Minimum Surface Tension, relative peptide concentration 1/8: 1/8 dilution of equimolar stock with lipid mixture; for Mean Minimum Surface Tension, relative peptide concentration 1/16: 1/16 dilution of equimolar stock with lipid mixture; for Mean Minimum Surface Tension, relative peptide concentration Equimolar: equimolar to 0.5 mg/mL SP-B(53-78); for Mean Minimum Surface Tension, relative peptide concentration Equimolar / Mean Minimum Surface Tension, relative peptide concentration 2%: 445 sq. cm trough; for Mean Minimum Surface Tension, relative peptide concentration 2%: peptide 2% of solids (0.5 mg/ml); for surface activity (in words): summary of Tables 3, 4 and 5
Procedure: For the purpose of this comparison "surface activity" is defined as follows: For any given peptide concentration, the admixture is required to result in a minimum dynamic surface tension of less than 10 dynes/cm for each of seven consecutive expansion/compression cycles.
Initially each of the admixtures was formulated so as to contain an equal number of moles of the individual peptide as is contained in a 0.5 mg/mL admixture of SP-B(53-78). […] Thereafter, each of these admixtures was diluted with the standard lipid mixture as described in Example 4, so as to provide doubling dilutions of the equimolar "parent" stock peptide admixture. The lipid concentration in all cases was maintained at 25 mg/ml.
Assessment of relative surface activity was conducted on the modified Wilhemy-Langmuir Surface Balance. For these studies a standard volume of 27 ul of each admixture, corresponding to a total phospholipid mass of 675 ug, was applied to the Langmuir Trough with maximum dimensions of 445 sq. cm.

[3] = Pulsating Bubble Surfactometer (PBS) surface tension; details: after 5 minutes pulsation (100 cycles); 1 mg/ml phospholipid, peptide 2% of phospholipids; 0.15M NaCl; 37° C.; 20 cycles/minute; SD in parenthesis
Procedure: as §1
The PBS equipment (Electronetics, Buffalo, N.Y.) used was essentially equivalent to that described in detail by G. Enhorning, J. Appld. Physiol. 43, 198-203, (1977). Recordings were made of the pressure gradient across the wall of a small air bubble, communicating with ambient air by means of a narrow chimney stack, but otherwise entirely surrounded by a 40 ul volume of the peptide/lipid admixture. The admixture concentration employed for these studies was 1 mg/ml total phospholipid (0.02 mg/ml total peptide) and the diluent was 0.15M NaCl.
Immediately prior to loading the sample chamber, the diluted samples were sonicated for 15 seconds to remove any gas nuclei.
The pressure drop across the air-water interface was measured during pulsation by a pressure transducer, and the corresponding surface tension was determined at minimum and maximum bubble size through the application of Young's law and the Laplace equation. Measurements were all made at 37° C. and the bubble pulsed at 20 cycles/minute to render respectively a maximum (1.1 mm) and a minimum (0.8 mm) bubble diameter. (This compression/expansion corresponds to a 50% change in the surface area of the air-water interface).

[4] = Dynamic surface tension versus compressed surface area, modified Wilhelmy Surface Balance (Langmuir Trough); details: peptide 0.5 mg/ml (~2% of solids) in DPPC:PG:PA 68:22:9; 675 ug phospholipid on 445 sq. cm trough; recorded during seven complete cycles
Procedure: as §1
The dynamic surface tension lowering properties of the peptide/lipid admixtures were studied using a modified Wilhelmy Surface Balance (Langmuir Trough). The instrument consists of an all Teflon trough and movable Teflon ribbon (dam) barrier system which completely contains and defines a variable surface area. Surface area was varied through the use of a constant rate reversible 3-phase motor to drive the Teflon barrier. A Cahn 2000 electrobalance (Cahn Instruments, Cerittos, Calif.) with a sandblasted 1 cm platinum plate and stainless steel hangdown wire was employed to determine the surface tension at the liquid-air interface. The entire apparatus was situated in a thermostated incubator set at 45° C. Surface area-surface tension measurements were made by adding 950 ml of 0.15M NaCl to the trough. Subphase temperature was controlled during the measurements at 36°-38° C.
For each experiment 27 ul of peptide/lipid admixture was applied in a random array of 13 droplets to the surface of the temperature controlled subphase and allowed to spread spontaneously for 3 minutes. (The 27 ul application corresponds to 675 ug of phospholipid). The trough surface area was then cycled from a maximum (445 sq. cm) to a minimum (178 sq. cm) surface area and back to maximum at a cycling rate of 3 cycles/min (compression ratio 2.5:1). The dynamic surface tension versus surface area was recorded for 7 complete compression-expansion cycles for each application.

Substance | Adsorption (equilibrium adsorption surface tension) [1] | Mean Minimum Surface Tension, relative peptide concentration 1/2 [2] | Mean Minimum Surface Tension, relative peptide concentration 1/4 [2] | Mean Minimum Surface Tension, relative peptide concentration 1/8 [2] | Mean Minimum Surface Tension, relative peptide concentration 1/16 [2] | Mean Minimum Surface Tension, relative peptide concentration Equimolar [2] | Mean Minimum Surface Tension, relative peptide concentration 2% [2] | Surface tension Maximum (maximum bubble size) [3] | Surface tension Minimum (minimum bubble size) [3] | Surface Tension Maximum [4] | Surface Tension Minimum [4] | surface activity (in words) [2]
SP-B(53-78): replica of the 26 residue carboxyl terminal region of native human SP-B (YSVILLDTLLGRMLPQLVCRLVLRCS; Pulmonary surfactant-associated protein B; UniProt P07988 253-278, looked up, fragment) | 47.0 dynes/cm | 0.6 mN/m | 0.5 mN/m | 2.0 mN/m | 14.5 mN/m | 0.7 mN/m | 0.1 mN/m | 56.7 (2.9) dyne/cm | 1.5 (0.6) dyne/cm | 50.4 dynes/cm | 1.1 dynes/cm | –
SP-B(53-78)diAcm: SP-B positions 53-78, cysteines 71 and 77 capped with S-acetamidomethyl (Acm) groups (YSVILLDTLLGRMLPQLVC(Acm)RLVLRC(Acm)S; UniProt P07988 253-278, looked up, fragment) | 47.0 dynes/cm | – | – | – | – | – | 0.1 mN/m | 54.1 (2.6) dyne/cm | 4.1 (3.1) dyne/cm | 49.5 dynes/cm | 0.1 dynes/cm | unusual surface activity
SP-B(58-78)diAla: SP-B positions 58-78, cysteines 71 and 77 replaced by alanine (LDTLLGRMLPQLVARLVLRAS; Pulmonary surfactant-associated protein B; UniProt P07988 258-278, looked up, variant C71A C77A) | 39.7 dynes/cm | 0.3 mN/m | 1.5 mN/m | 4.7 mN/m | 24.1 mN/m | 0.0 mN/m | 0.2 mN/m | 52.0 (3.3) dyne/cm | 7.5 (1.2) dyne/cm | 57.0 dynes/cm | 0.2 dynes/cm | unusual surface activity
SP-B(66-78): synthesized SP-B peptide fragment, positions 66-78, 13 amino acids (LPQLVCRLVLRCS; not fully specified; cysteine pairing not given here; UniProt P07988 266-278, looked up, fragment) | 47.5 dynes/cm | 2.8 mN/m | 6.7 mN/m | 14.9 mN/m | 22.0 mN/m | 0.6 mN/m | 0.7 mN/m | 61.5 (5.4) dyne/cm | 9.4 (1.4) dyne/cm | 50.7 dynes/cm | 0.7 dynes/cm | –
SP-B(66-78)diLys: SP-B positions 66-78, cysteines 71 and 77 replaced with lysine (LPQLVKRLVLRKS; Pulmonary surfactant-associated protein B; UniProt P07988 266-278, looked up, variant C71K C77K) | 48.9 dynes/cm | 8.2 mN/m | 7.0 mN/m | 15.0 mN/m | 23.0 mN/m | 2.5 mN/m | 2.6 mN/m | 55.1 (6.6) dyne/cm | 1.8 (0.5) dyne/cm | 56.5 dynes/cm | 2.6 dynes/cm | –
SP-B(69-78): synthesized SP-B peptide fragment, positions 69-78, 10 amino acids (LVCRLVLRCS; Pulmonary surfactant-associated protein B; UniProt P07988 269-278, looked up, fragment) | 56.5 dynes/cm | 12.5 mN/m | 13.8 mN/m | 12.2 mN/m | – | 13.3 mN/m | 6.3 mN/m | 64.0 (5.0) dyne/cm | 27.3 (0.5) dyne/cm | 65.0 dynes/cm | 6.3 dynes/cm | –
